Data from the supplement of paper PMC5998384.

Experiments:
HeLa Kyoto [1] = test: solubility in G1/S (NP-40 vs SDS abundance) (log2 ratio); higher = more soluble; settings: cell cycle stage: G1/S
HeLa Kyoto [2] = test: melting temperature (median over replicates), in situ; higher = more thermally stable
HeLa Kyoto [3] = test: solubility change mitosis vs G1/S (difference of NP-40 vs SDS log2 ratios) (log2 ratio difference); higher = more soluble in mitosis
HeLa Kyoto [4] = test: thermal stability score vs G1/S (z-score of summed log2 fold changes over temperatures); higher = more thermally stable than in G1/S
[5] = cell cycle stage: early G1 (4.5 h after nocodazole release)
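For melting temperature (median over replicates), in situ in this document: HeLa Kyoto cells synchronized by double thymidine or nocodazole block, proteins quantified by TMT10plex mass spectrometry, three independent biological replicates.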
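For solubility change mitosis vs G1/S (difference of NP-40 vs SDS log2 ratios) in this document: synchronized HeLa Kyoto cells (double thymidine block for G1/S, nocodazole release for mitosis), protein amounts in NP-40 versus SDS lysates quantified by mass spectrometry, three biological replicates.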
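For solubility in G1/S (NP-40 vs SDS abundance) in this document: HeLa Kyoto cells arrested at G1/S by double thymidine block, proteins quantified by TMT10plex mass spectrometry in mild NP-40 versus SDS extracts, three biological replicates.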
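For thermal stability score vs G1/S (z-score of summed log2 fold changes over temperatures) in this document: synchronized HeLa Kyoto cells, proteins quantified by TMT10plex mass spectrometry, three biological replicates, mitosis taken 0.5 h after nocodazole release, G1/S directly after double thymidine block.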

MTR, sequence (chain, as listed by the source): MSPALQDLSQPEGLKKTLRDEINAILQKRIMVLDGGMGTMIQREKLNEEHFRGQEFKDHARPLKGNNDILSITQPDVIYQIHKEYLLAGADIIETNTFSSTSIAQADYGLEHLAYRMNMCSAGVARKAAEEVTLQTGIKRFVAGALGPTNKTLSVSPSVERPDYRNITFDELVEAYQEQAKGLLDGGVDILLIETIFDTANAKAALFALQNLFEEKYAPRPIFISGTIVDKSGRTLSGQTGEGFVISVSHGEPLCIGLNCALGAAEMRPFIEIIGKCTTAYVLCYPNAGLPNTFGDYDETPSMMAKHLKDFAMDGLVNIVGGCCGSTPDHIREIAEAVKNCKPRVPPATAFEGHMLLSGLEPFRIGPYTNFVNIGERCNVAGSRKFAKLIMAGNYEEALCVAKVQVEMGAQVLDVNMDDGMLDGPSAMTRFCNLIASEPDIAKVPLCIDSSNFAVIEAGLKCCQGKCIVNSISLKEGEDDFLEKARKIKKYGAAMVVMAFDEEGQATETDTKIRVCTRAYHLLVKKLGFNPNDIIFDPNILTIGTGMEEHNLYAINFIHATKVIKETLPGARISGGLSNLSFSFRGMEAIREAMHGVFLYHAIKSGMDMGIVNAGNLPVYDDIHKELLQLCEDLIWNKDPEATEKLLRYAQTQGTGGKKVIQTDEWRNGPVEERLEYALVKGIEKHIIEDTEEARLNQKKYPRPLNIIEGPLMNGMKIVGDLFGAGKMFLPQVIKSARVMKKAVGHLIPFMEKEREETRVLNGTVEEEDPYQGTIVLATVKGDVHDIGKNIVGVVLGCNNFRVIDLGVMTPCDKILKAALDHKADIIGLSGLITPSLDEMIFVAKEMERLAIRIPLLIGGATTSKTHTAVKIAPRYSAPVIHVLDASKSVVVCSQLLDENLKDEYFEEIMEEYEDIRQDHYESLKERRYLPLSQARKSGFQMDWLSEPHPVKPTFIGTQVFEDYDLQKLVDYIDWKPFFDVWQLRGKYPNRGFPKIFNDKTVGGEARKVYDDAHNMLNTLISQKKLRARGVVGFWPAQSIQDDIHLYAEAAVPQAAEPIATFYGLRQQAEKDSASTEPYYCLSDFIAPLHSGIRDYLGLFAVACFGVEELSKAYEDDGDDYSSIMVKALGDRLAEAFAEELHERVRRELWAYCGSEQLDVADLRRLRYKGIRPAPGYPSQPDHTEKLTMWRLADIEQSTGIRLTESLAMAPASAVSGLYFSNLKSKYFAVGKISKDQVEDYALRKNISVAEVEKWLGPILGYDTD

Row | Substance | solubility in G1/S (log2) (HeLa Kyoto [1]) | melting temperature (HeLa Kyoto [2]; cell cycle stage: G1/S) | melting temperature (HeLa Kyoto [2]; cell cycle stage: mitosis) | solubility change mitosis (log2) (HeLa Kyoto [3]) | thermal stability score (HeLa Kyoto [4]; [5]) | thermal stability score (HeLa Kyoto [4]; cell cycle stage: mitosis)
1 | MTPSQVAFEIRGTLLPGEVFAICGSCDALGNWNPQNAVALLPENDTGESMLWKATIVLSRGVSVQYRYFKGYFLEPKTIGGPCQVIVHKWETHLQPRSITPLESEIIIDDGQFGIHNGVETLDSGWLTCQTEIRLRLHYSEKPPVSITKKKLKKSRFRVKLTLEGLEEDDDDRVSPTVLHKMSNSLEISLISDNEFKCRHSQPECGYGLQPDRWTEYSIQTMEPDNLELIFDFFEEDLSEHVVQGDALPGHVGTACLLSSTIAESGKSAGILTLPIMSRNSRKTIGKVRVDYIIIKPLPGYSCDMKSSFSKYWKPRIPLDVGHRGAGNSTTTAQLAKVQENTIASLRNAASHGAAFVEFDVHLSKDFVPVVYHDLTCCLTMKKKFDADPVELFEIPVKELTFDQLQLLKLTHVTALKSKDRKESVVQEENSFSENQPFPSLKMVLESLPEDVGFNIEIKWICQQRDGMWDGNLSTYFDMNLFLDIILKTVLENSGKRRIVFSSFDADICTMVRQKQNKYPILFLTQGKSEIYPELMDLRSRTTPIAMSFAQFENLLGINVHTEDLLRNPSYIQEAKAKGLVIFCWGDDTNDPENRRKLKELGVNGLIYDRIYDWMPEQPNIFQVEQLERLKQELPELKSCLCPTVSRFVPSSLCGESDIHVDANGIDNVENA [GPCPD1] | 0.0477 | 50 °C | 50.6 °C | -0.12 | -0.29 | -0.26
2 | MTQAEIKLCSLLLQEHFGEIVEKIGVHLIRTGSQPLRVIAHDTGTSLDQVKKALCVLVQHNLVSYQVHKRGVVEYEAQCSRVLRMLRYPRYIYTTKTLYSDTGELIVEELLLNGKLTMSAVVKKVADRLTETMEDGKTMDYAEVSNTFVRLADTHFVQRCPSVPTTENSDPGPPPPAPTLVINEKDMYLVPKLSLIGKGKRRRSSDEDAAGEPKAKRPKYTTDNKEPIPDDGIYWQANLDRFHQHFRDQAIVSAVANRMDQTSSEIVRTMLRMSEITTSSSAPFTQPLSSNEIFRSLPVGYNISKQVLDQYLTLLADDPLEFVGKSGDSGGGMYVINLHKALASLATATLESVVQERFGSRCARIFRLVLQKKHIEQKQVEDFAMIPAKEAKDMLYKMLSENFMSLQEIPKTPDHAPSRTFYLYTVNILSAARMLLHRCYKSIANLIERRQFETKENKRLLEKSQRVEAIIASMQATGAEEAQLQEIEEMITAPERQQLETLKRNVNKLDASEIQVDETIFLLESYIECTMKRQ [POLR3C] | 0.132 | 50.5 °C | 51.1 °C | -0.0973 | 1.65 | 1.67
3 | MTR | 0.00491 | 48.6 °C | 49.9 °C | -0.144 | -0.177 | 0.37
4 | MTSKQAMSSNEQERLLCYNGEVLVFQLSKGNFADKEPTKTPILHVRRMVFDRGTKVFVQKSTGFFTIKEENSHLKIMCCNCVSDFRTGINLPYIVIEKNKKNNVFEYFLLILHSTNKFEMRLSFKLGYEMKDGLRVLNGPLILWRHVKAFFFISSQTGKVVSVSGNFSSIQWAGEIENLGMVLLGLKECCLSEEECTQEPSKSDYAIWNTKFCVYSLESQEVLSDIYIIPPAYSSVVTYVHICATEIIKNQLRISLIALTRKNQLISFQNGTPKNVCQLPFGDPCAVQLMDSGGGNLFFVVSFISNNACAVWKESFQVAAKWEKLSLVLIDDFIGSGTEQVLLLFKDSLNSDCLTSFKITDLGKINYSSEPSDCNEDDLFEDKQENRYLVVPPLETGLKVCFSSFRELRQHLLLKEKIISKSYKALINLVQGKDDNTSSAEEKECLVPLCGEEENSVHILDEKLSDNFQDSEQLVEKIWYRVIDDSLVVGVKTTSSLKLSLNDVTLSLLMDQAHDSRFRLLKCQNRVIKLSTNPFPAPYLMPCEIGLEAKRVTLTPDSKKEESFVCEHPSKKECVQIITAVTSLSPLLTFSKFCCTVLLQIMERESGNCPKDRYVVCGRVFLSLEDLSTGKYLLTFPKKKPIEHMEDLFALLAAFHKSCFQITSPGYALNSMKVWLLEHMKCEIIKEFPEVYFCERPGSFYGTLFTWKQRTPFEGILIIYSRNQTVMFQCLHNLIRILPINCFLKNLKSGSENFLIDNMAFTLEKELVTLSSLSSAIAKHESNFMQRCEVSKGKSSVVAAALSDRRENIHPYRKELQREKKKMLQTNLKVSGALYREITLKVAEVQLKSDFAAQKLSNL [FANCB] | -0.208 | 53.7 °C | 53.8 °C | -0.0928 | 1.37 | 0.274
